{"source": "patent US20230364000A1", "about": "“COMPOSITIONS COMPRISING COMBINATIONS OF COLLAGEN OR ELASTIN POLYPEPTIDES WITH ACTIVE INGREDIENTS AND METHODS OF USING SAME” (Geltor, Inc., priority 2020, published 2023)", "molecules": {"B1": {"name": "SEQ ID NO: 16: truncated human collagen type 21 alpha 1 without the DsbA secretion tag, recombinantly expressed in E. coli (protein)", "chain": "AGFPGLPGPAGEPGRHGKDGLMGSPGFKGEAGSPGAPGQDGTRGEPGIPGFPGNRGLMGQKGEIGPPGQQGKKGAPGMPGLMGSNGSPGQPGTPGSKGSKGEPGIQGMPGASGLKGEPGATGSPGEPGYMGLPGIQGKKGDKGNQGEKGIQGQKGENGRQGIPGQQGIQGHHGAKGERGEKGEPGVR"}}, "key": {"facial skin [1]": {"system": "facial skin", "assay": "Corneometer skin hydration, clinical study of Example 3", "assay_type": "in vivo, human", "set-up": "key to Corneometer Mean Percent Improvement From BL mean: NI = No Improvement", "settings": "0.1% w/w topical formulation; for Corneometer Mean ± SD: n 14, baseline 42.45 ± 10.06", "procedure": "(§1) A clinical study using human subjects to determine the effects of a topical skincare product containing truncated human type 21 collagen (SEQ ID NO: 16) is performed. The research is performed according to U.S. and International standards of Good Clinical Practice (FDA and ICH guidelines) and applicable government regulations.\n(§2) A base formulation (control formulation) made of water, olive oil glycereth-8 esters, glycerin, coconut alkanes, hydroxyethyl acrylate/sodium acryloyldimethyl taurate copolymer, pentylene glycol, disodium EDTA, caprylyl glycol, chlorphenesin, phenoxyethanol is prepared. A formulation containing the truncated human type 21 collagen is prepared by adding sufficient collagen to prepare a topical formulation containing 0.1% w/w collagen.\nThe corneometer CM 820 (Courage+Khazaka, Germany) measures the relative degree of hydration of the skin surface by applying an alternating current to the skin with a closely spaced pair of electrodes and measuring the capacitance. Changes in water content of the skin change the conductance of the capacitive circuit.\nThe corneometer is able to detect slight changes in the hydration level reproducibly with a measurement time of only about one second. The measurement depth is small (approximately 10-20 μm of stratum corneum) which ensures assessment is not influenced by deeper skin layers.\nAll subjects undergo corneometer measurements of their face at baseline, immediately post-initial-application, and at weeks 2, 4, and 8. Measurements will be taken in triplicate and averaged for each time point. Measurement location is recorded on a face map for assessment consistency at each time point.\n(§3) Improvements in skin hydration, firmness, and elasticity were statistically significant."}, "facial skin [2]": {"system": "facial skin", "assay": "SIAscope dermal collagen, clinical study of Example 3", "assay_type": "in vivo, human", "settings": "0.1% w/w topical formulation, Week 2", "procedure": "as §1, §2\nThe COSMETRICS™ SIAScope (Astron Clinica, Toft, UK) is a non-invasive optical skin imaging instrument using Spectrophotometric Intracutaneous Analysis (SIA), or chromophore mapping. The technique is based on a unique combination of dermatoscopy and contact remittance spectrophotometry. The hardware consists of a hand-held imaging probe attached to a laptop computer. The unit is placed in contact with the skin surface and high-intensity LED's illuminate the skin as discreet wavelengths of 400 to 1000 nm, spanning the visible spectrum and a small range of the near infrared spectrum. A digital image is captured for each wavelength. Three parametric chromophore maps are retrieved up to 2 mm in depth and 11 mm in circumference, one for each of the following parameters: epidermal melanin, dermal hemoglobin and dermal collagen.\nFor the purposes of this study, dermal collagen will be measured on the left or right cheek, per a prepared randomization code, at baseline and at weeks 2, 4, and 8. Assessment location will be recorded on a face map for each subject for consistency of measurements between visits.\nas §3"}, "[3]": {"system": "human primary fibroblasts", "assay": "Fibroblast collagen type I protein secretion (pro-collagen type I C-peptide ELISA)", "assay_type": "cell-based", "settings": "0.03%; 48 hours; compared with untreated cells or cells treated with retinol; FIG. 1", "procedure": "A series of in vitro experiments were conducted to assess the effects of a truncated human type 21 collagen on human skin fibroblasts and keratinocytes. In a first experiment, human primary fibroblasts were evaluated for collagen type I protein secretion. Fibroblasts were cultured with 0.03% of a polypeptide according to SEQ ID NO: 16 for 48 hours. Culture supernatants were analyzed by Enzyme Linked Immunosorbent Assay (ELISA) for pro-collagen type I C-peptide, which is a readout for total secreted collagen type I protein."}, "[4]": {"system": "human primary keratinocytes", "assay": "IL-la ELISA in UVB-irradiated keratinocytes", "assay_type": "cell-based", "settings": "40 mJ/cm^2 UVB, then 0.1% for 24 hours; compared to untreated UVB-irradiated keratinocytes; FIG. 3", "procedure": "Human primary keratinocytes were irradiated with 40 mJ/cm^2 UVB light, and then treated with 0.1% of a polypeptide of SEQ ID NO: 16 for 24 hours. Levels of the pro-inflammatory cytokines IL-la were determined by ELISA."}, "[5]": {"assay": "Oxygen radical absorbance capacity (ORAC) assay, cell-free", "assay_type": "biochemical", "settings": "0.1% solution", "procedure": "The antioxidant potential of a polypeptide of SEQ ID NO: 16 was assessed using the oxygen free radical absorbance capacity (ORAC) assay. The ORAC assay is a cell-free assay that uses a fluorescent readout to measure a product's antioxidant capacity. Data is reported in Trolox (Vitamin E) equivalents.\nA polypeptide of SEQ ID NO: 5 was also evaluated in the ORAC assay.\nAn oxygen radical absorbance capacity (ORAC) assay was performed to analyze the anti-oxidative capacity of a polypeptide according to SEQ ID NO: 52. The ORAC assay is a cell-free assay that uses a fluorescent readout to measure anti-oxidative capacity. Data is reported in Trolox (Vitamin E) equivalents (TEs)."}, "[6]": {"system": "human primary keratinocytes", "assay": "MTT viability of UVB-irradiated keratinocytes, pre- and post-irradiation treatment", "assay_type": "cell-based", "settings": "0.1% for 24 hours before and 24 hours after 40 mJ/cm^2 UVB; compared with UVB-irradiated keratinocytes without treatment; FIG. 5", "procedure": "To further assess the effects of treatment with a polypeptide of SEQ ID NO: 16 on UVB-irradiated keratinocytes, an experiment was performed with pre- and post-irradiation treatment. Human primary keratinocytes were pre-treated with 0.1% of a polypeptide of SEQ ID NO: 16 for 24 hours, irradiated with 40 mJ/cm^2 UVB light, and then treated again with 0.1% of a polypeptide of SEQ ID NO: 16 for an additional 24 hours. Cell viability was evaluated using the MTT metabolic colorimetric assay."}, "facial skin [7]": {"system": "facial skin", "assay": "SIAscope facial skin collagen content, clinical study of Example 5", "assay_type": "in vivo, human", "settings": "topical facial serum 0.1%, n=15, FIG. 7", "description": "In a clinical study (n=15 subjects), subjects used a topical facial serum containing 0.1% of a polypeptide of SEQ ID NO: 16 for 8 weeks, after using a protein-free base facial serum for a 1-week washout period. Topical application of a polypeptide of SEQ ID NO: 16 was associated with increased skin collagen content, as measured by a SIAscope."}, "facial skin [8]": {"system": "facial skin", "assay": "Facial skin redness, clinical study of Example 5", "assay_type": "in vivo, human", "settings": "topical facial serum 0.1%, n=15, FIG. 8", "description": "In a clinical study (n=15 subjects), subjects used a topical facial serum containing 0.1% of a polypeptide of SEQ ID NO: 16 for 8 weeks, after using a protein-free base facial serum for a 1-week washout period."}}, "data": [{"molecule": "B1", "values": [{"measurement": "Corneometer Mean Percent Improvement From BL mean", "setting": "facial skin [1]; Immediate", "value": 36.69, "unit": "%"}, {"measurement": "Corneometer Percent of Subjects Showing Improvement From BL", "setting": "facial skin [1]; Immediate", "value": 100, "unit": "%"}, {"measurement": "Corneometer Mean ± SD", "setting": "facial skin [1]; Immediate, P-value <0.001*", "value": "57.22 ± 12.47"}, {"measurement": "Corneometer Mean Percent Improvement From BL mean", "setting": "facial skin [1]; Week 2", "value": "NI"}, {"measurement": "Corneometer Percent of Subjects Showing Improvement From BL", "setting": "facial skin [1]; Week 2", "value": 14.3, "unit": "%"}, {"measurement": "Corneometer Mean ± SD", "setting": "facial skin [1]; Week 2, P-value 0.001** (significant worsening)", "value": "35.71 ± 10.77"}, {"measurement": "SIAscope Collagen Mean Percent Improvement From BL mean", "setting": "facial skin [2]", "value": 6.72, "unit": "%"}, {"measurement": "SIAscope Collagen Percent of Subjects Showing Improvement From BL", "setting": "facial skin [2]", "value": 78.6, "unit": "%"}, {"measurement": "SIAscope Collagen Mean ± SD", "setting": "facial skin [2]; n 14, baseline 238.95 ± 11.60, P-value 0.004*", "value": "254.89 ± 19.35"}, {"measurement": "secreted collagen type I (pro-collagen type I C-peptide)", "setting": "[3]", "value": "higher levels"}, {"measurement": "levels of IL-la", "setting": "[4]", "value": "lower levels"}, {"measurement": "antioxidant properties, Trolox (Vitamin E) equivalents", "setting": "[5]", "value": 190, "unit": "μM Trolox"}, {"measurement": "cell viability (MTT)", "setting": "[6]", "value": "higher cell viability"}, {"measurement": "skin collagen content", "setting": "facial skin [7]; 2 weeks vs baseline", "value": "increased"}, {"measurement": "skin collagen content", "setting": "facial skin [7]; 8 weeks vs baseline", "value": "increased"}, {"measurement": "skin redness", "setting": "facial skin [8]; 4 weeks vs baseline", "value": "decrease"}, {"measurement": "skin redness", "setting": "facial skin [8]; 8 weeks vs baseline", "value": "decrease"}]}]}
